This sample holds only a part of the variants without activity.
Experiments:
biotinyl-Leu-oxazolone = assay: self-aminoacylation, catalytic enhancement (BLO) (fold over background); higher = more active; k-Seq, kA / k0A0; sequences stand for … in GGGAAUGGAUCCACAUCUACGAAUUC…UUCACUGCAGACUUGACGAAGCUG
Outline: (§1)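 Working in 50 μL HEPES/NaCl/KCl/MgCl2/CaCl2 buffer with 5% acetonitrile at pH 6.9–7.0, mutagenized RNA pools (0.43 μM; 21-nt variable region) were reacted with 2–1250 μM of each biotinyl-aminoacyl-oxazolone for 90 minutes at room temperature. Streptavidin capture followed, with quantification by triplicate qPCR and Illumina sequencing. Catalytic enhancement is reported as median kA over the uncatalyzed rate, the low-activity peak of a bimodal Gaussian fit to the data.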

biotinyl-Met-oxazolone = assay: self-aminoacylation, catalytic enhancement (BMO) (fold over background); higher = more active; k-Seq, kA / k0A0; sequences stand for … in GGGAAUGGAUCCACAUCUACGAAUUC…UUCACUGCAGACUUGACGAAGCUG
Outline: as §1

biotinyl-Trp-oxazolone = assay: self-aminoacylation, catalytic enhancement (BWO) (fold over background); higher = more active; k-Seq, kA / k0A0; sequences stand for … in GGGAAUGGAUCCACAUCUACGAAUUC…UUCACUGCAGACUUGACGAAGCUG
Outline: as §1

biotinyl-Ile-oxazolone = assay: self-aminoacylation, catalytic enhancement (BIO) (fold over background); higher = more active; k-Seq, kA / k0A0; sequences stand for … in GGGAAUGGAUCCACAUCUACGAAUUC…UUCACUGCAGACUUGACGAAGCUG
Outline: as §1

biotinyl-Phe-oxazolone = assay: self-aminoacylation, catalytic enhancement (BFO) (fold over background); higher = more active; k-Seq, kA / k0A0; sequences stand for … in GGGAAUGGAUCCACAUCUACGAAUUC…UUCACUGCAGACUUGACGAAGCUG
Outline: as §1

biotinyl-Val-oxazolone = assay: self-aminoacylation, catalytic enhancement (BVO) (fold over background); higher = more active; k-Seq, kA / k0A0; sequences stand for … in GGGAAUGGAUCCACAUCUACGAAUUC…UUCACUGCAGACUUGACGAAGCUG
Outline: as §1

Sequence	self-aminoacylation (biotinyl-Leu-oxazolone)	self-aminoacylation (biotinyl-Met-oxazolone)	self-aminoacylation (biotinyl-Trp-oxazolone)	self-aminoacylation (biotinyl-Ile-oxazolone)	self-aminoacylation (biotinyl-Phe-oxazolone)	self-aminoacylation (biotinyl-Val-oxazolone)
CCACACUUUAGGCAAUCGGUC [Fam1B.1 aminoacylation ribozyme variant]	0.831	0.96	0.713	1.12	0.648	1.01
AUUGCCCAGGUCAUCGAGUGA [Fam2.1 aminoacylation ribozyme variant]	4.81	5.51	5.7	2.66	18.4	3.16
AUACACUUAGGUCAUCGGGUG [Fam2.2 aminoacylation ribozyme variant]	6.18	5.5	5.82	3.82	36.6	3.3
CUACUUUAAACAAUCGGUCAG [Fam1A.1 aminoacylation ribozyme variant]	0.588	0.716	0.417	0.617	0.862	0.655
CUACUUCCAAGAAUCGGUCUG [Fam1A.1 aminoacylation ribozyme variant]	0.762	0.934	1.04	0.838	0.97	0.776
AUCACCCGGGUCAUCGAGUGA [Fam2.1 aminoacylation ribozyme variant]	7.28	7.5	8.12	3.65	51.8	4.32
CUACUUCAAACAAUCAGUCUA [Fam1A.1 aminoacylation ribozyme variant]	0.776	0.841	5.04	0.871	15.7	0.9
AAGUUUGCUAAUAGUCGCUGG [Fam3.1 aminoacylation ribozyme variant]	0.78	1.67	1.18	1.21	1.72	1.25
CCACACUUCACGCAAUCGUUC [Fam1B.1 aminoacylation ribozyme variant]	0.794	0.717	0.939	0.725	0.716	0.905
AAGUGUGGUAAUAGUCGCAAG [Fam3.1 aminoacylation ribozyme variant]	1.48	1.15	1.15	1.43	1.5	1.16
AUUCAGCUAGGUCAGCGGGUG [Fam2.2 aminoacylation ribozyme variant]	4.01	3.79	4.28	2.71	21.8	2.53
AUUACCCUGGUCAUCUAUUGA [Fam2.1 aminoacylation ribozyme variant]	0.839	0.879	0.789	1.08	0.868	1.11
CCACACUUCAAGGAAUCCGUC [Fam1B.1 aminoacylation ribozyme variant]	1.08	1.65	1.07	1.24	0.963	1.14
CUACAUCAAACGAUCGGUCUG [Fam1A.1 aminoacylation ribozyme variant]	0.78	0.657	0.778	0.728	0.836	0.93
CCAGACUUCAAGCAAUCGCUC [Fam1B.1 aminoacylation ribozyme variant]	2.71	2.06	1.54	2.23	5.36	2.11
CUACUUCAAACACUCGCUCUG [Fam1A.1 aminoacylation ribozyme variant]	0.708	1.06	0.468	0.924	1.16	0.818
GUUCACUUAGGUCAUCGGGUG [Fam2.2 aminoacylation ribozyme variant]	6.01	4.97	5.21	3.48	27.9	3.12
AUUACCCUUGUCAUCGAGGGA [Fam2.1 aminoacylation ribozyme variant]	1.27	1.28	1.3	1.16	2.14	0.957
CCACACUGCAAGCAAUUGGUC [Fam1B.1 aminoacylation ribozyme variant]	0.961	0.87	0.59	1.14	0.969	0.956
AUUACCUCGGUCAUCGAGUGA [Fam2.1 aminoacylation ribozyme variant]	5.32	5.12	6.06	2.82	20.8	2.87
AUUACCCUGGCCAUCGAGGGA [Fam2.1 aminoacylation ribozyme variant]	1.47	1.01	1.31	1.9	0.483	2.96
CUACGUCAAACACUCGGUCUG [Fam1A.1 aminoacylation ribozyme variant]	1.83	1.6	2.65	1.85	10.9	2.18
AUUCACGUGGGUCAUCGGGUG [Fam2.2 aminoacylation ribozyme variant]	7.84	9.61	9.93	5.57	94	8.26
AUUCUCCUAGGUCAUCGGGAG [Fam2.2 aminoacylation ribozyme variant]	1.77	1.81	1.71	1.49	5.17	1.33
AUUCACCUAGGUCCUCCGGUG [Fam2.2 aminoacylation ribozyme variant]	11.5	10.3	9.26	6.38	63.3	5.33

Source: the supplement of paper PMC9233669
